Series [1] addresses Grb2 SH2 (UniProt P62993). Put plainly: SH2 binding enrichment of the phosphorylated peptide, bacterial display (enrichment ratio); higher = better substrate or ligand; peptides without Tyr show the background.
The target in series [2] is c-Src SH2. Described as above.
In series [3] the target is SHP2-C SH2. The description is as above.
The target in series [4] is FGFR1 (UniProt P11362). The experiment in a line: phosphorylation enrichment, bacterial display (enrichment ratio); higher = better substrate or ligand; peptides without Tyr show the background.
Series [5] has as its target Jak2 (UniProt O60674). The series is described as above.
The target of series [6] is EPHB2 (UniProt P29323). The description is as above.
Series [7] deals with c-Abl (mouse). The series is described as above.
Series [8] deals with MERTK (UniProt Q12866). Described as above.
Series [9] concerns the target FGFR3 (UniProt P22607). The description is as above.
The test system of series [10] is AncSZ. The series is described as above.
Series [11] deals with Hck (UniProt P08631). Described as above.
The target of series [12] is Fes (UniProt P07332). The series is described as above.
In series [13] the target is EPHB1 (UniProt P54762). The series is described as above.
The target in series [14] is Fyn (UniProt P06241). The series is described as above.
For series [15], the system named is c-Src. The description is as above.
For series [16], the system named is Fer (mouse). The description is as above.

Seven sequences from the supplement of paper PMC10065799, “High-throughput profiling of sequence recognition by tyrosine kinases and SH2 domains using bacterial peptide display” (eLife, 2023) can be followed below.
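For SH2 binding enrichment of the phosphorylated peptide, bacterial display in this document: peptide library displayed on the E. coli surface as eCPX fusions, selected cells deep-sequenced, score is each peptide's frequency after selection divided by its frequency in the input.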
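For phosphorylation enrichment, bacterial display in this document: 11-residue human phosphosite peptides and single-mutation variants displayed on the E. coli surface, counted by deep sequencing, each peptide's frequency after selection divided by its frequency in the unselected input library; frequency after pTyr selection over input frequency; kinase dosed for 20-30% of maximal phosphorylation in three min.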

Sequence of FGFR3 (P22607 whole entry, looked up): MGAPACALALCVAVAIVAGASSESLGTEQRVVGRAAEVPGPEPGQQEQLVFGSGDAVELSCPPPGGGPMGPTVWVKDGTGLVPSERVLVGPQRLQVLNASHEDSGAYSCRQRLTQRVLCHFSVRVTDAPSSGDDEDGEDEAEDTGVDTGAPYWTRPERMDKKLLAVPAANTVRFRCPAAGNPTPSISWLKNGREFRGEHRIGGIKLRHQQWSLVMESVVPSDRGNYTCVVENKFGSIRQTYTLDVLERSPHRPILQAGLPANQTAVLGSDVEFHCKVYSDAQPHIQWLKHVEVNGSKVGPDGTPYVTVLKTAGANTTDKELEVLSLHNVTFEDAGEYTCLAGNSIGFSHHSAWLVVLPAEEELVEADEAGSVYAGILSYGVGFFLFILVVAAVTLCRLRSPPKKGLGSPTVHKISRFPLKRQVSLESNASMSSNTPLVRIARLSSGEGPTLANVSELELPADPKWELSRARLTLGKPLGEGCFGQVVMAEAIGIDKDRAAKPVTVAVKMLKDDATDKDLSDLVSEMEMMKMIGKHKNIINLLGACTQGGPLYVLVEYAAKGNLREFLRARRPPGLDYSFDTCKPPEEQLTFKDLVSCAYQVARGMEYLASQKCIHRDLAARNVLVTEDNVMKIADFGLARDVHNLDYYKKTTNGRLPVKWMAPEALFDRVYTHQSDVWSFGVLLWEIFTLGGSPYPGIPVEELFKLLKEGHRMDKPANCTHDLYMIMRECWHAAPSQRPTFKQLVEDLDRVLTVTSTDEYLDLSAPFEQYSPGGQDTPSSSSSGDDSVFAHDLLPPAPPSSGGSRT
Sequence of EPHB2 (P29323 whole entry, looked up): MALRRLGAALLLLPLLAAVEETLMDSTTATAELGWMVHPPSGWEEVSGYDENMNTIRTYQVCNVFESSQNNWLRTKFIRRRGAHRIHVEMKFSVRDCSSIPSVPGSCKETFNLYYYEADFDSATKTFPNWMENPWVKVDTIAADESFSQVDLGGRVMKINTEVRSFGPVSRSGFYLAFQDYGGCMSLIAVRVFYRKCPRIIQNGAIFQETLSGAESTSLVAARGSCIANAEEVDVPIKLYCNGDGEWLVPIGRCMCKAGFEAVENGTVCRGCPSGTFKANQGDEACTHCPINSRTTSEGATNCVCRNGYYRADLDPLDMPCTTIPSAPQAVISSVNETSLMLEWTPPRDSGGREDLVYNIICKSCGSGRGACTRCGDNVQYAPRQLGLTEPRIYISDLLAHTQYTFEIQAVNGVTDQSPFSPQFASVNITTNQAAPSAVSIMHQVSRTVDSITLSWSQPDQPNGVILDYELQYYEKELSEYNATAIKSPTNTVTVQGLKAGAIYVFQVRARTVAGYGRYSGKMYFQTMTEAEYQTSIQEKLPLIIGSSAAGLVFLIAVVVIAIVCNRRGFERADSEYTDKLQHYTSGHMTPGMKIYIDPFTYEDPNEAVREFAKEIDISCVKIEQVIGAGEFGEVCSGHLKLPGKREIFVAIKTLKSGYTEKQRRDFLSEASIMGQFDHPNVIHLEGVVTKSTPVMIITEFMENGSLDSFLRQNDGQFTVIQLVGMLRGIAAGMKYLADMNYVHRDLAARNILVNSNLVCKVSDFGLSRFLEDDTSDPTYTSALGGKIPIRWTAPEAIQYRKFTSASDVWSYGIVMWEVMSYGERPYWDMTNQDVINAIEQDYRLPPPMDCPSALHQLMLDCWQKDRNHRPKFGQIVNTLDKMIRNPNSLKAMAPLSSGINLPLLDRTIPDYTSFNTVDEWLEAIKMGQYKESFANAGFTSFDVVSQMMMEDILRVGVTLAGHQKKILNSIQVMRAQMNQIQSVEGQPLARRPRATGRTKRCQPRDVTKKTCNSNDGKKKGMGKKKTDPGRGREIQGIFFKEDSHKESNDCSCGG
Sequence of EPHB1 (P54762 whole entry, looked up): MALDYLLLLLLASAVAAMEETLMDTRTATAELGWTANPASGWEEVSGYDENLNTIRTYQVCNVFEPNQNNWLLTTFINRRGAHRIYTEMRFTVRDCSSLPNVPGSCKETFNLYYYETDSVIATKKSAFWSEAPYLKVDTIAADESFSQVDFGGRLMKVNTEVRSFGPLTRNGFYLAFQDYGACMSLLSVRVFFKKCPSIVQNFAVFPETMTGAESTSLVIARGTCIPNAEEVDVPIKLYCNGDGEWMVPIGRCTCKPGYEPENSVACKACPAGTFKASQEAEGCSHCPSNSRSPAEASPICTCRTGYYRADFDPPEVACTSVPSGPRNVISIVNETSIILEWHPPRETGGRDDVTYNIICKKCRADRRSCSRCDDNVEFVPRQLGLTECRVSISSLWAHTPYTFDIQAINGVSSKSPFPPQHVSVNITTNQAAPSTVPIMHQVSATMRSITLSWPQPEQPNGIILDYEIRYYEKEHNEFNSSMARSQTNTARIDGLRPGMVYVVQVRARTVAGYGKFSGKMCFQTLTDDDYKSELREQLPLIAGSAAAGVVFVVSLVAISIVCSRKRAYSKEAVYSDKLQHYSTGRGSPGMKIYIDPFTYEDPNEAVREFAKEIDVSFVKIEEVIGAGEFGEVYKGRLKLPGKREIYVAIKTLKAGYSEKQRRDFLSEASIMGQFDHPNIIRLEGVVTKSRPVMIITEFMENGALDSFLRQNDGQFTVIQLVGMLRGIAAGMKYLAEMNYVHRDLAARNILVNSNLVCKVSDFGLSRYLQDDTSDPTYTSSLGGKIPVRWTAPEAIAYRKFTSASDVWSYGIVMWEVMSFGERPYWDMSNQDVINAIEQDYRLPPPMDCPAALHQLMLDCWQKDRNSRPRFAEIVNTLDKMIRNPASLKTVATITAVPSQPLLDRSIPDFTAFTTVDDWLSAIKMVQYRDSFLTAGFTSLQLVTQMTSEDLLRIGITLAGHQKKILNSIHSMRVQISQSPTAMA
Sequence of Hck (P08631 whole entry, looked up): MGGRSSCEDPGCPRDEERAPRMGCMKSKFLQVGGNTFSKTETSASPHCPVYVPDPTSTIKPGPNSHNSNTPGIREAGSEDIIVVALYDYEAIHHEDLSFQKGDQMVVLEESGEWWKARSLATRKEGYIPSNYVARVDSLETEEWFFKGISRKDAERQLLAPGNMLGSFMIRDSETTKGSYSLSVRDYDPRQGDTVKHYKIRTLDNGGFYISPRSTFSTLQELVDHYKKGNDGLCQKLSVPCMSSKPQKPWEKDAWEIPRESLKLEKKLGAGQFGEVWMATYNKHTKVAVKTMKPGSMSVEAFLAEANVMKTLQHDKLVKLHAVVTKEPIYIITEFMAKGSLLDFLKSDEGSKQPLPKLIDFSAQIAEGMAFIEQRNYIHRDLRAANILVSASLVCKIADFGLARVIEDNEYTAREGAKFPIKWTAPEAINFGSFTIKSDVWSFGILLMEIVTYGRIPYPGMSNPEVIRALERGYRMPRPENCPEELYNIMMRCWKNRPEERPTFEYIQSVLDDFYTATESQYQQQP
Sequence of Fes (P07332 whole entry, looked up): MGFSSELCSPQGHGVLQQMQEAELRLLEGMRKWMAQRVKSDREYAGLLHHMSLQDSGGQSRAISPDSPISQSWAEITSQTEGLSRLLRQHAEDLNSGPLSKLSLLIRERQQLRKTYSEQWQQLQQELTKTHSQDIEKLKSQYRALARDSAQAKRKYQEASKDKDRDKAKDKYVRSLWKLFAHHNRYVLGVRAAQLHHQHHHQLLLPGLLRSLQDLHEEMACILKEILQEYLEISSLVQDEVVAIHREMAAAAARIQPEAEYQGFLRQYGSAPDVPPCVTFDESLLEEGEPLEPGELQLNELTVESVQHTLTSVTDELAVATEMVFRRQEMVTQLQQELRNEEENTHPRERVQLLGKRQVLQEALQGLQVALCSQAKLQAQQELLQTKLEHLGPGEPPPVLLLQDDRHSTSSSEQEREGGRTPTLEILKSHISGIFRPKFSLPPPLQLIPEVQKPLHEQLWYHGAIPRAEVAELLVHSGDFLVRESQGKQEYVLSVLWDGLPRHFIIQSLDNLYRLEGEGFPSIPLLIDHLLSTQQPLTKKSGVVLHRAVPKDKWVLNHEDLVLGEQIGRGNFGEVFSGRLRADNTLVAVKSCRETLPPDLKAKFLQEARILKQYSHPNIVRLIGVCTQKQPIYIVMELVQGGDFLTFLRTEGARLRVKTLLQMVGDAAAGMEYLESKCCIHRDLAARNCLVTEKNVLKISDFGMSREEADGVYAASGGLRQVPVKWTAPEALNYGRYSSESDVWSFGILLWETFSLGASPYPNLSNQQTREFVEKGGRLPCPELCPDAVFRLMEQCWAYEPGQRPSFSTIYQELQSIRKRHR
Sequence of Grb2 SH2 (P62993 whole entry, looked up): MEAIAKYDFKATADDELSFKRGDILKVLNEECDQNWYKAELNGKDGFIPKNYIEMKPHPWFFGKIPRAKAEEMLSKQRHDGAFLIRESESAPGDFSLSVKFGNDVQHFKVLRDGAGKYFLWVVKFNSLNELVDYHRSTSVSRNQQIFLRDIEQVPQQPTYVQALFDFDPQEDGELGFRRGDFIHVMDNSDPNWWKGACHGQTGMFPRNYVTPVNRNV
Sequence of Fyn (P06241 whole entry, looked up): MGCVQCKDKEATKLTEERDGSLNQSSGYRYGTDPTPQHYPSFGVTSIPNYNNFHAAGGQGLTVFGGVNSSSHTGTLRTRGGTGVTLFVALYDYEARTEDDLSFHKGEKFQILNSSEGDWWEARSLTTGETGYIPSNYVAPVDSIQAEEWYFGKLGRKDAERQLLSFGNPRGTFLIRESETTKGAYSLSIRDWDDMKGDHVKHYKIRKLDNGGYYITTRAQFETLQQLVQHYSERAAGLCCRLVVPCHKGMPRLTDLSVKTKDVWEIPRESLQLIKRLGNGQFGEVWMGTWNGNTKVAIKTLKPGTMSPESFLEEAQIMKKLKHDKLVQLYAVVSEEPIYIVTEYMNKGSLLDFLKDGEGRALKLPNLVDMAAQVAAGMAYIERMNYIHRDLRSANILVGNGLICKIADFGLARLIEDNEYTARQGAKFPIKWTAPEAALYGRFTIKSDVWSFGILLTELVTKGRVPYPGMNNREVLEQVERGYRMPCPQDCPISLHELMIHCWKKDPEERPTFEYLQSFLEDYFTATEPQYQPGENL

Regarding ALTDNYMYVVI [HAGH_Y61_L64V], the SH2 binding enrichment in series [1] stood at 0.783; in series [2], 0.607; in series [3], 0.767. Moreover, the phosphorylation enrichment in series [4] was 11.1; in series [5] it was 2.65; in series [6], 13.1; in [7], 0.952; in series [8], 4.21; in series [9], 9.14. The phosphorylation enrichment in series [10] was 1.92; in series [11] it was 1.52; in [12] it was 1.42; in [13], 12.9; in series [14], 1.04; in series [15], 1.12. For the same sequence, in series [16], the phosphorylation enrichment worked out at 7.79.
For the sequence ALTRSYIREKV [CYP2C8_Y243], the SH2 binding enrichment in [1] stood at 0.655; in [2], 0.433; in series [3], 0.576. Also, the phosphorylation enrichment in series [4] amounted to 0.423; in series [5], 0.445; in series [6], 0.316; in [7], 0.417; in series [8] it was 0.369; in [9], 0.367. In addition, the phosphorylation enrichment in [10] was determined as 0.524; in series [11] it was 0.4; in series [12], 0.596; in [13], 0.388; in [14] it was 0.422; in [15] it was 0.419. Further, in series [16], the phosphorylation enrichment came out at 0.43.
As to AMCVRYDGVEV [ADAMTSL2_Y594], the SH2 binding enrichment worked out at 0.805 in series [1], 0.859 in [2] and 0.682 in series [3]. The phosphorylation enrichment amounted to 0.7 in series [4]; 1 in series [5]; 0.735 in [6]; 0.817 in [7]; 0.49 in [8]; 0.781 in series [9]. For the same sequence, the phosphorylation enrichment in series [10] was found to be 1.19; in [11], 0.644; in [12], 1.26; in [13], 0.764; in series [14], 0.583; in [15] it was 0.542. Moreover, the phosphorylation enrichment in series [16] turned out to be 0.791.
Take ANAFIYVVQLP [L1CAM_Y420_YF]: the SH2 binding enrichment came to 0.85 in series [1], 0.478 in series [2] and 0.668 in series [3]. In addition, the phosphorylation enrichment in series [4] stood at 0.538; in series [5], 1.02; in series [6], 0.743; in [7], 0.724; in [8], 0.909; in series [9], 0.855. Besides, the phosphorylation enrichment is 1.19 in series [10]; 0.693 in series [11]; 1.32 in series [12]; 0.701 in [13]; 0.631 in series [14]; 0.678 in series [15]. Further, in series [16], the phosphorylation enrichment is 0.559.
With ANSSFHSTRSA [NUMA1_Y1836_Y1836H], the values for the SH2 binding enrichment in series [1], in series [2] and in series [3] were 0.749, 0.528 and 0.514, respectively. Besides, the phosphorylation enrichment amounted to 0.551 in [4]; 0.552 in series [5]; 0.51 in series [6]; 0.616 in series [7]; 0.496 in series [8]; 0.599 in series [9]. In addition, the phosphorylation enrichment came out at 0.597 in series [10]; 0.551 in [11]; 1.04 in series [12]; 0.436 in series [13]; 0.555 in series [14]; 0.602 in series [15]. Moreover, the phosphorylation enrichment in series [16] was determined as 0.425.
Turning to APAHKYHGGGG [HBD_Y146_L142P], the SH2 binding enrichment in series [1] worked out at 0.709; in series [2], 0.538; in series [3], 0.66. Moreover, the phosphorylation enrichment in [4] stood at 0.37; in [5], 0.35; in series [6], 0.419; in series [7], 0.616; in [8], 0.549; in series [9], 0.423. The phosphorylation enrichment came to 0.778 in [10]; 0.294 in series [11]; 0.502 in [12]; 0.288 in [13]; 0.328 in series [14]; 0.537 in series [15]. The phosphorylation enrichment in series [16] was found to be 0.329.
Consider AQAGEYGAEAL [HBA1_Y25_H21Q], for which the SH2 binding enrichment in series [1] amounted to 0.931; in series [2] it was 0.608; in series [3], 0.842. In addition, the phosphorylation enrichment in series [4] was determined as 0.557; in series [5] it was 0.767; in [6] it was 0.545; in series [7], 0.491; in series [8], 0.327; in series [9], 0.629. Also, the phosphorylation enrichment was found to be 0.965 in series [10]; 0.514 in series [11]; 0.96 in series [12]; 0.609 in [13]; 0.507 in series [14]; 0.33 in [15]. The phosphorylation enrichment in [16] was found to be 0.465.
